Results reported in US20210388087A1 (Chugai, published 2021).
Where no end group is shown, it is not given here.

T1: cyno CD137-Fc (cynomolgus monkey; human, limits assumed, biotin-labeled)
T1 construct: whole entry 92 named; also called biotin-labeled cynomolgus monkey CD137 fused to human IgG1 Fc fragment; not shown: human IgG1 Fc fragment
T1 chain: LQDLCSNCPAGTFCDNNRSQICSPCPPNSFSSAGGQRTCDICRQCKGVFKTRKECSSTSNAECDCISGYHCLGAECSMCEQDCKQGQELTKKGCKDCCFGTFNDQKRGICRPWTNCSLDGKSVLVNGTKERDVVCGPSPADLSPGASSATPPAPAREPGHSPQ

T2: Biotin-labeled CD3 epsilon peptide antigen (human, also: biotin-labeled, site not given here)
T2 construct: also called CD3 peptide
T2 peptide: QDGNEEMGGITQTPY

T3: cyno CD137 (cynomolgus monkey, UniProt Q07011 24-186 (human entry), limits assumed)
T3 construct: also called cynomolgus monkey CD137
T3 chain: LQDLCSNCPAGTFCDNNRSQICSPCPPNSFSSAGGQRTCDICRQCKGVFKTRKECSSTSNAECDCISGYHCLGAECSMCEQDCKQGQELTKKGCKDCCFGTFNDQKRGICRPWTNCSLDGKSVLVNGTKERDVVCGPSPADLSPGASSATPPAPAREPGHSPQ


How the values were obtained:
human CD137-Fc [1] = target: T4, human CD137-Fc (human, biotin-labeled); assay: bead ELISA, IgG on biotinylated antigen, luminescence;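 further: biotinylated antigen captured on streptavidin magnetic beads, then incubated with purified IgG at 50 ng/µL for 1 h at room temperature before detection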
T4 construct: if 90 already holds the Fc, drop the second piece; also called biotin-labeled human CD137 fused to human IgG1 Fc fragment; biotin-human CD137-Fc; not shown: human IgG1 Fc fragment

cyno CD137-Fc = target: T1, cyno CD137-Fc; assay: as above
human CD137-Fc [2] = target: T4, human CD137-Fc; assay: bead ELISA on biotin-human CD137-Fc, 0 pmol free CD3e peptide
[3] = target: T2, Biotin-labeled CD3 epsilon peptide …; assay: bead ELISA, IgG on biotinylated CD3 epsilon peptide, luminescence
human CD137-Fc [4] = target: T4, human CD137-Fc; assay: bead ELISA on biotin-human CD137-Fc, free CD3e peptide vs free Fc
human CD137-Fc [5] = target: T4, human CD137-Fc; assay: bead ELISA on biotin-human CD137-Fc, 125 vs 0 pmol free CD3e peptide;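 further: target captured on streptavidin-coated magnetic beads, signal read as fluorescence 2 min after adding APS-5 substrate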
human CD137-Fc [6] = target: T4, human CD137-Fc; assay: bead ELISA on biotin-human CD137-Fc with 62.5 pmol free CD3e peptide as competitor
human CD137-Fc [7] = target: T4, human CD137-Fc; assay: bead ELISA on biotin-human CD137-Fc with 62.5 pmol free human Fc (control competitor)
human CD137-Fc [8] = target: T4, human CD137-Fc; assay: bead ELISA on biotin-human CD137-Fc with 125 pmol/well free CD3e peptide as competitor;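 further: Streptavidin-coated magnetic beads in blocking buffer as the capture surface, well signal read as fluorescence 2 min after adding APS-5 substrate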
human CD137 = human CD137 (human, UniProt Q07011 24-186); assay: SPR Biacore T200, IgG captured on protein A, 25 C;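 further: antigens diluted in ACES running buffer at pH 7.4 were flowed over antibodies held on a CM3 chip bearing amine-coupled protein A, with buffer alone serving as blank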
cyno CD137 = target: T3, cyno CD137; assay: SPR Biacore T200, IgG captured on protein A, 25 C;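 further: antigens diluted in ACES running buffer at pH 7.4 were flowed over antibodies held on a CM3 chip bearing amine-coupled protein A, with buffer alone serving as blank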
human CD3 ed = human CD3 ed (human, UniProt P07766 23-126; P04234 22-105, limits assumed); assay: SPR Biacore T200, IgG captured on protein A, 25 C;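 further: antigens diluted in ACES running buffer at pH 7.4 were flowed over antibodies held on a CM3 chip bearing amine-coupled protein A, with buffer alone serving as blank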
[9] = target: T5, biotin-labeled human CD137 fused to human IgG1 Fc fragment (human, biotin-labeled); assay: competitive ELISA on biotin-human CD137-Fc; free CD3e vs free Fc
T5 construct: also called human CD137-Fc; biotin-human CD137-Fc; not shown: human IgG1 Fc fragment

[10] = target: T5, biotin-labeled human CD137 fused to …; assay: competitive ELISA on biotin-human CD137-Fc; free Fc 62.5 pmol (control)
[11] = target: T5, biotin-labeled human CD137 fused to …; assay: competitive ELISA on biotin-human CD137-Fc; competitor free CD3e 62.5 pmol

| RLU (human CD137-Fc [1]) [RLU] | S/N ratio (human CD137-Fc/Fc) (human CD137-Fc [1]) | RLU (cyno CD137-Fc) [RLU] | S/N ratio (cyno CD137-Fc/Fc) (cyno CD137-Fc) | ELISA signal (human CD137-Fc [2]) | RLU [3] [RLU] | S/N ratio (CD3 peptide/non coating) [3] | Signal decrease (human CD137-Fc [4]) [%] | Signal decrease (human CD137-Fc [5]) [%] | ELISA signal (human CD137-Fc [6]) | ELISA signal (human CD137-Fc [7]) | ELISA signal (human CD137-Fc [8]) | Binder | further results |
| --- | --- | --- | --- | --- | --- | --- | --- | --- | --- | --- | --- | --- | --- |
| 39100 | 20.3 | 10800 | 5.6 | 6620 | 174000 | 156 | 93.6 | 68 | 9970 | 155000 | 2120 | DADU01_3#002 (antibody, V domains shown, Human IgG1; light chain GLS3000 (kappa); also called dBBDu124) VH: QVQLVESGGGLVQPGRSLRLSCAASGFTFSNAWMHWVRQAPGKGLEWVAQIKDKQNLYNAYYAESVKGRFTISRDDSKNSIYLQMNSLKTEDTAVYYCHYVHYASASTVLPAFGVDAWGQGTTVTVSS VL: DIVMTQSPLSLPVTPGEPASISCRSSQSLVHSNRNTYLHWYQQKPGQAPRLLIYKVSNRFSGVPDRFSGSGSGTDFTLKISRVEAEDVGVYYCGQGTQVPYTFGQGTKLEIK |  |
| 32800 | 17.3 | 6200 | 3.27 | 2750 | 182000 | 149 | 92.3 | 33 | 9020 | 117000 | 1840 | DADU01_3#018 (antibody, V domains shown, Human IgG1; light chain GLS3000 (kappa); also called dBBDu123) VH: QVQLVESGGGLVQPGRSLRLSCAASGFTFSNAWMHWVRQAPGKGLEWVAQIKDRANSYNAYYAPSVKGRFTISRDDSKNSIYLQMNSLKTEDTAVYYCHYVHYSAASTLLPSFGVDAWGQGTTVTVSS VL: DIVMTQSPLSLPVTPGEPASISCRSSQSLVHSNRNTYLHWYQQKPGQAPRLLIYKVSNRFSGVPDRFSGSGSGTDFTLKISRVEAEDVGVYYCGQGTQVPYTFGQGTKLEIK |  |
| 95300 | 54.1 | 1210 | 0.687 | 116000 | 198000 | 146 | 81.3 | 97.8 | 15100 | 81000 | 2610 | DADU01_3#001 (antibody, V domains shown, Human IgG1; light chain GLS3000 (kappa); also called dBBDu126; dBBDu_126) VH: QVQLVESGGGLVQPGRSLRLSCAASGFTFSIAWMHWVRQAPGKGLEWVAQIKDRVNAYEAYYAPSVKGRFTISRDDSKNSIYLQMNSLKTEDTAVYYCRYVHYASYYDLLGYGGVDAWGQGTTVTVSS VL: DIVMTQSPLSLPVTPGEPASISCRSSQSLVHSNRNTYLHWYQQKPGQAPRLLIYKVSNRFSGVPDRFSGSGSGTDFTLKISRVEAEDVGVYYCGQGTQVPYTFGQGTKLEIK |  |
| 77800 | 23.8 | 5090 | 1.56 | 61400 | 191000 | 161 | 92.5 | 96.7 | 12800 | 172000 | 2060 | DXDU01_3#019 (antibody, V domains shown, Human IgG1; light chain GLS3000 (kappa); also called dBBDu125) VH: QVQLVESGGGLVQPGRSLRLSCAASGFTFSIAWMHWVRQAPGKGLEWVAQIKDKVNGYTAYYAESVKGRFTISRDDSKNSIYLQMNSLKTEDTAVYYCRYVHYAAYYDVLGYGGVDAWGQGTTVTVSS VL: DIVMTQSPLSLPVTPGEPASISCRSSQSLVHSNRNTYLHWYQQKPGQAPRLLIYKVSNRFSGVPDRFSGSGSGTDFTLKISRVEAEDVGVYYCGQGTQVPYTFGQGTKLEIK |  |
| 38100 | 13.1 | 10900 | 3.73 | 3230 | 169000 | 145 | 91.6 | 32 | 10800 | 128000 | 2200 | DXDU01_3#051 (antibody, V domains shown, Human IgG1; light chain GLS3000 (kappa); also called dBBDu127) VH: QVQLVESGGGLVQPGRSLRLSCAASGFTFSNAWMHWVRQAPGKGLEWVAQIKDRGQQYNAYYAPSVKGRFTISRDDSKNSIYLQMNSLKTEDTAVYYCHYVHYASASSVLPGYGVDAWGQGTTVTVSS VL: DIVMTQSPLSLPVTPGEPASISCRSSQSLVHSNRNTYLHWYQQKPGQAPRLLIYKVSNRFSGVPDRFSGSGSGTDFTLKISRVEAEDVGVYYCGQGTQVPYTFGQGTKLEIK |  |
| 24200 | 10.2 | 19100 | 8.09 | 3610 | 165000 | 141 | 91.1 | 49.4 | 9660 | 108000 | 1830 | DXDU01_3#094 (antibody, V domains shown, Human IgG1; light chain GLS3000 (kappa); also called dBBDu121) VH: QVQLVESGGGLVQPGRSLRLSCAASGFTFSNAWMHWVRQAPGKGLEWVAQIKDKGNAYAAYYAPSVKGRFTISRDDSKNSIYLQMNSLKTEDTAVYYCHYVHYASAAGGLPGFGVDAWGQGTTVTVSS VL: DIVMTQSPLSLPVTPGEPASISCRSSQSLVHSNRNTYLHWYQQKPGQAPRLLIYKVSNRFSGVPDRFSGSGSGTDFTLKISRVEAEDVGVYYCGQGTQVPYTFGQGTKLEIK |  |
|  |  |  |  |  |  |  |  |  |  |  |  | dBBDu193/L132 (antibody, V domains shown, IgG format; constant regions not specified; also called dBBDu_193 dBBDu.L132) VH: QVQLVESGGGLVQPGRSLRLSCAASGFTFSNAWMHWVRQAPGKGLEWVAQIKDRSNQYATYYAPSVKGRFTISRDDSKNSIYLQMNSLKTEDTAVYYCHYVHYSAASTLLPSFGVDAWGQGTTVTVSS VL: DIVMTQSPLSLPVTPGEPASISCQTSEELVHINRFIFLHWYQQKPGQAPRLLIYKVSNRFSGVPDRFSGSGSGTDFTLKISRVEAEDVGVYYCAQGTSVPFTFGQGTKLEIK | Kd (human CD137): 4.48 µM; koff (human CD137): 0.00211 s⁻¹; kon (human CD137): 471 M⁻¹ s⁻¹; Kd (cyno CD137): 757 µM; koff (cyno CD137): 0.0061 s⁻¹; Kd (human CD3 ed): 2.03 µM; koff (human CD3 ed): 0.0201 s⁻¹; kon (human CD3 ed): 9890 M⁻¹ s⁻¹; Signal decrease [9]: 91%; ELISA signal [10]: 116000; ELISA signal [11]: 10400 |
|  |  |  |  |  |  |  |  |  |  |  |  | dBBDu193/L127 (antibody, V domains shown, IgG format; constant regions not specified; also called dBBDu_193 dBBDu.L127) VH: QVQLVESGGGLVQPGRSLRLSCAASGFTFSNAWMHWVRQAPGKGLEWVAQIKDRSNQYATYYAPSVKGRFTISRDDSKNSIYLQMNSLKTEDTAVYYCHYVHYSAASTLLPSFGVDAWGQGTTVTVSS VL: DIVMTQSPLSLPVTPGEPASISCRASEELLHINRHIFLHWYQQKPGQAPRLLIYKVYNRFTGVPDRFSGSGSGTDFTLKISRVEAEDVGVYYCAQGTSVPFTFGQGTKLEIK | Kd (human CD137): 3.3 µM; koff (human CD137): 0.00145 s⁻¹; kon (human CD137): 440 M⁻¹ s⁻¹; Kd (cyno CD137): 28.1 µM; koff (cyno CD137): 0.00316 s⁻¹; kon (cyno CD137): 112 M⁻¹ s⁻¹; Kd (human CD3 ed): 1.51 µM; koff (human CD3 ed): 0.0191 s⁻¹; kon (human CD3 ed): 12600 M⁻¹ s⁻¹; Signal decrease [9]: 59.4%; ELISA signal [10]: 6080; ELISA signal [11]: 2470 |
|  |  |  |  | 99400 |  |  | 0.94 | 1.26 | 183000 | 184000 | 98100 | anti-human CD137 antibody described in WO2005/035584A1 (abbreviated as B) (antibody, V domains shown, Control antibody; also called control anti-CD137 antibody) VH: QVQLQQWGAGLLKPSETLSLTCAVYGGSFSGYYWSWIRQSPEKGLEWIGEINHGGYVTYNPSLESRVTISVDTSKNQFSLKLSSVTAADTAVYYCARDYGPGNYDWYFDLWGRGTLVTVSS VL: EIVLTQSPATLSLSPGERATLSCRASQSVSSYLAWYQQKPGQAPRLLIYDASNRATGIPARFSGSGSGTDFTLTISSLEPEDFAVYYCQQRSNWPPALTFGGGTKVEIK |  |
